Data on 1 sequence can be found in patent US20220233746A1, “PHARMACEUTICAL COMPOSITION FOR JOINT DISEASE TREATMENT AND METHOD FOR PRODUCING SAME” (EDUCATIONAL FOUNDATION OF OSAKA MEDICAL AND PHARMACEUTICAL …, priority 2019, published 2022).

Series [1] can be described thus: Measurement of mechanical strength of peptide hydrogel (rheology measurement, rheometer). The format is physicochemical. The method, then: Next, an equal amount (100 μL) of 2×PBS, 4×PBS, 6×PBS or 10×PBS was added to the aqueous peptide solution and mixed. Therefore, the final concentration of PBS in the mixture was 1×PBS, 2×PBS, 3×PBS, and 5×PBS, respectively. Thereafter, it was allowed to stand still in a cool and dark place for one day. As a result, the peptide in the aqueous peptide solution self-assembled by the action of the salt in PBS, and a peptide hydrogel was obtained. In addition, as a comparative example, Eagle's minimum essential medium (EMEM), which contains salts necessary for gel formation but is considered to be toxic in vivo, or 10 wt % NaCl aqueous solution (final concentration is 5 wt %) was added in an equal amount to the peptide aqueous solution and mixed, and the mixture was allowed to stand still in a cool and dark place for 1 day. A peptide hydrogel was also obtained in this comparative example.
[Example 2: Measurement of mechanical strength of peptide hydrogel] In order to evaluate the mechanical strength of each peptide hydrogel obtained as described above, a rheometer (HAAKE viscosity/viscoelasticity measuring device (HAAKE MARS40) manufactured by Thermo Scientific) was used for each peptide hydrogel and the rheology thereof was measured.

The subject of series [2] is rabbit meniscus defect. Briefly: Rabbit meniscus defect model, transplantation of peptide hydrogel into the defect. The format is in vivo, Japanese white rabbits. The procedure: First, 20 male Japanese white rabbits weighing 3.0 to 3.4 kg at 6 months of age were prepared, and a cylindrical defect with a diameter of 2.0 mm was prepared in the medial anterior segment of the meniscus of both knees (FIG. 2A). Further, a peptide hydrogel produced by the above method using a peptide of KI24RGDS and 5×PBS was prepared (FIG. 2B), and the peptide hydrogel was filled in the defect. The group in which the defect was filled with peptide hydrogel was designated as the KI24RGDS group, and the group in which no treatment was applied to the defect was designated as the control group. After transplantation, tissue evaluation was performed on the knees of each group using hematoxylin/eosin staining (HE staining) or safranin O staining. Tissue evaluation was performed at 2, 4, 8 and 12 weeks after transplantation, and 5 animals (10 knees) were evaluated at each evaluation period. In addition, the tissue evaluation used Ishida score and Quantitative Analysis of the Occupation Ratio of Tissue Regeneration (R/D ratio). In the evaluation based on Ishida score, scores were given from the three viewpoints shown in Table 1 below, and the degree of tissue repair was evaluated by the total. On the other hand, in the evaluation based on the R/D ratio, the degree of tissue repair was evaluated by analyzing the area of the entire defect (D) and the area of the repaired tissue (R) and calculating the ratio of R/D using ImageJ software as shown in FIG. 3.

Where [3] appears, read: hydrogel made with 5×PBS filled in 2.0 mm meniscus defect, 2, 4, 8 and 12 weeks after transplantation, versus untreated control group.

On to “IKIKIKIKIKRGDSKIKIKIKIKI (Peputide including strand and turn) [KI24RGDS, self-assembling β-hairpin peptide tested as a peptide hydrogel formed by adding PBS, NaCl solution or EMEM to its aqueous solution]”, for which the “difference between the storage elastic modulus G and the loss elastic modulus G″” value in series [1] (comparative hydrogel produced with 5 wt % NaCl aqueous solution (final concentration)) was “approximately 3750”; in series [1] (hydrogel produced with 3×PBS (final concentration)), “approximately 3950”. Besides, the “loss elastic modulus G″ of the peptide hydrogel” value in series [1] (hydrogel produced with 5×PBS (final concentration)) is recorded as “about 800”. Further, the “storage elastic modulus G of the peptide hydrogel” value in series [1] (hydrogel produced with 5×PBS (final concentration), 6% aqueous peptide solution mixed in equal amount) is reported as “about 15,000”. In series [2] (2, 4, 8 and 12 weeks after transplantation (FIG. 4)), the “macroscopic findings of the meniscus defect” value is “became smaller and repaired”. Moreover, in series [2] (2, 4, 8 and 12 weeks after transplantation (FIG. 5)), the “safranin O-stained meniscus tissue findings” value was “cells gathered in the defect and the tissue was repaired”. Moreover, the Ishida score entry in series [2] (setting [3]) is “higher in the KI24RGDS group than in the control group”. In addition, the “R/D ratio (Occupation Ratio of Tissue Regeneration)” value in series [2] (setting [3]) is “higher in the KI24RGDS group than in the control group”.
